The target of test [1] is 2-iminoacetate synthase ThiH from Thermosinus carboxydivorans (Thermosinus carboxydivorans). The test is described as follows: SEC; preparative gel filtration, HiLoad 16/600 S200 prep-grade column, buffer B (50 mM Tris pH 8, 100 mM NaCl), anaerobic. For orientation: SEC sorts molecules by how far they enter the pores of the column.
In test [2] the target is T1, TcThiH (2-iminoacetate synthase ThiH) (Thermosinus carboxydivorans, UniProt A1HPQ5).
T1 construct: gene TcarDRAFT_1903; full length, N-terminal Strep-tag kept (MWSHPQFEKA-SGTFYDVIEDYRHFDF...YKDWQAL, 377 residues printed; printed DNA encodes a His6 tag instead); E. coli BL21(DE3) with isc operon and metK; [4Fe-4S] reconstituted; monomer
T1 sequence (A1HPQ5 entry or part of it): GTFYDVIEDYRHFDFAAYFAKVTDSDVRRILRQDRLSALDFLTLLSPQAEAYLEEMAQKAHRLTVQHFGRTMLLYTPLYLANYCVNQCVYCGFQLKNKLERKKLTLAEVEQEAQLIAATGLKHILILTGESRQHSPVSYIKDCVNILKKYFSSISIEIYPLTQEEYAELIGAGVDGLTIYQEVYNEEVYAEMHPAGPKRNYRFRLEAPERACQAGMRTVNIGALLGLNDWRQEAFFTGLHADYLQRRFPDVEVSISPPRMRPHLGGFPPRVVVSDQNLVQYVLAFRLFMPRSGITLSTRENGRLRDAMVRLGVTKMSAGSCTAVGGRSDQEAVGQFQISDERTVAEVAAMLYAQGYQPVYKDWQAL
Put plainly: X-ray crystal structure, […] Å. Conditions: with L-tyrosine, 5'-deoxyadenosine; bound to the [4Fe-4S] cluster; pH 6.5, anaerobic; SAM cleavage product mimic. The format is binding.

As usually defined, the stoichiometry N is a count of units in the complex or per binding partner. As to “2-iminoacetate synthase ThiH from Thermosinus carboxydivorans (enzyme)”, the stoichiometry N in test [1] amounted to 2.
As for `CSCC[C@H](N)C(=O)O` [L-methionine], the “X-ray crystal structure, 1.27 Å” value in test [2] was “L-methionine bound to the radical SAM [Fe4S4]-cluster and L-tyrosine (Fig. 2b)”.
